Measurements as given in patent publication US20150307599A1 (GARVAN INSTITUTE OF MEDICAL RESEARCH, published 2015).
Where no end group is shown, it is not given here.

Key:
1p21-DMARYYSALR = biological target: T1, 1p21-DMARYYSALR; assay: indirect ELISA, peptide coated on the plate (20 µg/mL), MAb 5E12-B7 at 1 µg/mL, O.D. 450 nm
T1 construct: NPY residues 16-25; also called Peptide 1p21 (10 mer shifting across NPY)
T1 peptide: DMARYYSALR-NH2
Description: (§1) ELISA was used to map the reactivity of purified MAb 5E12-B7 against the peptides described in Table 3. Briefly, ELISA microwell plates (96-well Maxisorp, Nunc) were coated overnight at 4° C. with 50 μL of mapping peptides (Table 3) diluted to 20 μg/mL in carbonate coating buffer (CCB). Between each of the following steps, microwell plates were washed three times with PBST using a plate washer (BioTek). Coated wells were blocked with 200 μL PBS containing 5% w/v skim milk (Diploma). Blocked wells were incubated for 1 hr with 50 μL of MAb 5E12-B7 diluted to 1 μg/mL in skim milk/PBST. Wells were then incubated for 1 hr with 50 μL Peroxidase-conjugated AffiniPure F(ab)2 fragment goat anti-mouse secondary antibody (Jackson) diluted 1:5000 in skim milk/PBST. Ig binding was detected by incubation of wells with 50 μL TMB substrate (Becton Dickinson). Substrate reaction was stopped after 15 min with 50 μL 1M H₂SO₄ and O.D. 450 nm was measured.

1p24-RYYSALRHYI = biological target: T2, 1p24-RYYSALRHYI; assay: as above
T2 construct: NPY residues 19-28; also called Peptide 1p24 (10 mer shifting across NPY)
T2 peptide: RYYSALRHYI-NH2
Description: as §1

1p26-YSALRHYINL = biological target: T3, 1p26-YSALRHYINL; assay: as above
T3 construct: NPY residues 21-30; also called Peptide 1p26 (10 mer shifting across NPY)
T3 peptide: YSALRHYINL-NH2
Description: as §1

1p30-RHYINLITRQ = biological target: T4, 1p30-RHYINLITRQ; assay: as above
T4 construct: NPY residues 25-34; also called Peptide 1p30 (10 mer shifting across NPY)
T4 peptide: RHYINLITRQ-NH2
Description: as §1

1p19-AEDMARYYSA = biological target: T5, 1p19-AEDMARYYSA; assay: as above
T5 construct: also called Peptide 1p19 (10 mer shifting across NPY)
T5 peptide: AEDMARYYSA-NH2
Description: as §1

1p28-ALRHYINLIT = biological target: T6, 1p28-ALRHYINLIT; assay: as above
T6 construct: NPY residues 23-32; also called Peptide 1p28 (10 mer shifting across NPY)
T6 peptide: ALRHYINLIT-NH2
Description: as §1

1p31-HYINLITRQR = biological target: T7, 1p31-HYINLITRQR; assay: as above
T7 construct: NPY residues 26-35; also called Peptide 1p31 (10 mer shifting across NPY)
T7 peptide: HYINLITRQR-NH2
Description: as §1

1p29-LRHYINLITR = biological target: T8, 1p29-LRHYINLITR; assay: as above
T8 construct: NPY residues 24-33; also called Peptide 1p29 (10 mer shifting across NPY)
T8 peptide: LRHYINLITR-NH2
Description: as §1

[1] = biological target: T9, Peptide 3p8 (Poly alanine with last 4 residues NPFF); assay: SPR (Biacore), FIG. 12
T9 peptide: AAAAAAAAAAAAAPQRF-NH2
Description: (§2) Epitope mapping and determination of the affinity of MAb 5E12-B7 was also performed using a Biacore 2000 unit (GE Healthcare). Briefly, purified MAb 5E12-B7 was biotinylated as described above, except that the biotinylation reaction was performed at a 20:1 molar ratio of biotin:Ig. An SA-Chip (GE Healthcare) was docked into the Biacore 2000 unit and HBS-EP buffer (GE) was allowed to run over all 4 flow channels at 40 μL/min until signal had stabilized. The flow path was then switched to channel 4 only and HBS-EP containing 60 μg/mL biotinylated antibody was injected at 40 μL/min for 5 min to couple MAb 5E12-B7 to the chip via biotin-streptavidin binding. HBS-EP buffer was then run over channel 4 at 40 μL/min for over 30 min to remove all uncoupled Ig from the Biacore system then the flow path was changed to pass through all 4 flow channels. Association and dissociation of the peptides in Table 3 was measured using the Biacore Application Wizard. In each case, a baseline was established by passing HBS-EP over all 4 channels at 40 μL/min for 1 min before association was measure by injection of peptide (diluted to 1, 10, 100 or 1000 nM in HBS-EP) at 40 μL/min for 5 min. Dissociation was measured by allowing HBS-EP to pass over all 4 channels at 40 μL/min for 30 min. The kd, kₐ and KD were determined for each peptide by curve fitting using the BIAevalutation software.

Peptide 3p6 (ala-NPFF) = biological target: T10, Peptide 3p6 (ala-NPFF); assay: SPR (Biacore), FIG. 12
T10 construct: Last 8 residues of NPFF on a poly-alanine helix
T10 peptide: AAAAAAAAAFLFQPQRF-NH2
Description: as §2

[2] = biological target: T11, Peptide 3p7 (Brain Neuropeptide I); assay: SPR (Biacore), FIG. 12
T11 peptide: AGEGLSSPFWSLAAPQRF-NH2
Description: as §2

human PYY (Phoenix) = biological target: T12, human PYY (Phoenix) (human, C-terminal amide (-NH2)); assay: SPR (Biacore 2000), biotinylated MAb on SA chip, peptide in solution
T12 construct: 36-residue whole peptide; also called hPYY
Description: as §2
(§3) The affinity of MAb 5E12-B7 to NPY, PYY and PP peptides was measured using a Biacore-2000 (GE-healthcare). Biotinylated MAb was loaded onto a single channel of a streptavidin chip, and dilute samples (1 nM-1 μM) of NPY, mPYY, hPYY, mPP and hPP were then run over all four channels of the chip to obtain blank-subtracted readings for peptide on and off-rates. Using this method, significant and/or detectable binding of MAb 5E12-B7 to NPY, mPYY and hPYY was detected. In contrast, no significant and/or detectable binding to mPP and hPP could be detected.

NPY (mouse NPY, Phoenix) = biological target: T13, NPY (mouse NPY, Phoenix) (mouse, C-terminal amide (-NH2)); assay: as above
T13 construct: 36-residue whole peptide bought from Phoenix Peptides; also called mNPY; neuropeptide Y
Description: as §2, §3

T12 sequence (peptide, as listed by the source): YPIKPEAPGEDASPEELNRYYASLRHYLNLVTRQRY

B1: MAb 5E12-B7 (antibody, V domains shown)
VH: QVQLQHPGTEVVKPGASVKLSCKASGYTFTNYWMHWVKQRPGQGLEWIGNIDPSNGGTNYNEKFKSKATLTVDKSSSTAYMQLSSLTSEDSAVYYCASFAYWGQGTLVTVSA
VL: DIQMTQSPASLSASVGETVTITCRASGNIHNYLAWYQQKQGKSPQLLVYNAKTLADGVPSRFSGSGSGTQYSLKISSLRPEDFGSYYCQHFWSPPFTFGSGTKLEIK
notes: Biotinylated for the Biacore and Octet assays; also called PYY/NPY antibody (5E12); anti-NPY/PYY antibody 5E12
B1: no binding (tested: 1 µg/mL) (1p21-DMARYYSALR); no binding (tested: 1 µg/mL) (1p24-RYYSALRHYI); no binding (tested: 1 µg/mL) (1p26-YSALRHYINL). B1: no binding (tested: 1 µg/mL) (1p30-RHYINLITRQ); no binding (tested: 1 µg/mL) (1p19-AEDMARYYSA); no binding (tested: 1 µg/mL) (1p28-ALRHYINLIT). B1: no binding (tested: 1 µg/mL) (1p31-HYINLITRQR); no binding (tested: 1 µg/mL) (1p29-LRHYINLITR); no binding [1]. The binding result (Peptide 3p6 (ala-NPFF)) was “no binding”, the binding result [2] was “no binding” and the Kd (human PYY (Phoenix)) was 5.97 nM. The koff (human PYY (Phoenix)) was 0.00138 s⁻¹, the kon (human PYY (Phoenix)) was 251000 M⁻¹ s⁻¹ and the Kd (NPY (mouse NPY, Phoenix)) was 9.79 nM. For the same binder, the koff (NPY (mouse NPY, Phoenix)) was 0.00142 s⁻¹ and the kon (NPY (mouse NPY, Phoenix)) was 149000 M⁻¹ s⁻¹.
